Numbering of substitutions follows the chain as printed.
T1: LbuC2c2-dHEPN1/dHEPN2 (Leptotrichia buccalis, UniProt C7NBY4 SEQ:1-1159, R472A,H477A,R1048A,H1053A)
T1 sequence: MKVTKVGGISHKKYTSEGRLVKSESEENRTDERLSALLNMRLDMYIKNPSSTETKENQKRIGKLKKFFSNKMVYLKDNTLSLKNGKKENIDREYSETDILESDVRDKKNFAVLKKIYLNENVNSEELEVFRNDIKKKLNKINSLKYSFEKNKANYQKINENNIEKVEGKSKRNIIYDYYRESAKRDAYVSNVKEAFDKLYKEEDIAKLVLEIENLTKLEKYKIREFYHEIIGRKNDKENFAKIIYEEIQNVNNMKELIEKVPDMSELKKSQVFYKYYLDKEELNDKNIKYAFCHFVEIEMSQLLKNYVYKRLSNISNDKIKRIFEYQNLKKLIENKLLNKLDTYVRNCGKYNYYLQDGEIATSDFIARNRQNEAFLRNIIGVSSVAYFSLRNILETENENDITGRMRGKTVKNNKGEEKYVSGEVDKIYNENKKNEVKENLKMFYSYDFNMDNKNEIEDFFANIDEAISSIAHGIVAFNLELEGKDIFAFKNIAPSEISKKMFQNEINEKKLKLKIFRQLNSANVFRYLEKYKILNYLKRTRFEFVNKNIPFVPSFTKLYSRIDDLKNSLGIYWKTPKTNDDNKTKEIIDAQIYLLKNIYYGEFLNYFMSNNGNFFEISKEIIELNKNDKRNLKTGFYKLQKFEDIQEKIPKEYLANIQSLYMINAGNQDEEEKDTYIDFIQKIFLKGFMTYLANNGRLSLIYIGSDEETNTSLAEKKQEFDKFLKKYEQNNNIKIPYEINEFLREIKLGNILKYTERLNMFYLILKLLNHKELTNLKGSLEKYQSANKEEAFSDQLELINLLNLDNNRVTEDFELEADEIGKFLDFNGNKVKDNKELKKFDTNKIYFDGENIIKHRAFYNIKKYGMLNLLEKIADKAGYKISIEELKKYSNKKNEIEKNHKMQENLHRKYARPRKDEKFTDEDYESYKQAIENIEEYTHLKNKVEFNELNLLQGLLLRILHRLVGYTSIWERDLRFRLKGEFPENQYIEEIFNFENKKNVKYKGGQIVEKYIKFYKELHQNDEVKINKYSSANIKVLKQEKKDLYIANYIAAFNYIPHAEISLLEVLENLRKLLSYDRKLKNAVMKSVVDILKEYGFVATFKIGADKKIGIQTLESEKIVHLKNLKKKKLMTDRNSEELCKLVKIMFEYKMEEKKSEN

T2: LbuC2c2-R1079A (Leptotrichia buccalis, UniProt C7NBY4 SEQ:1-1159, R1079A)
T2 sequence: T1 sequence with A472R, A477H, A1048R, A1053H, R1079A

B1: crRNA-A_GG (mature) ; target A ssRNA (ssRNA ; ssRNA)
RNA 1: GGCCACCCCAAAAAUGAAGGGGACUAAAACAGGGGCAGAGAUGAUGACCCU
RNA 2: GGCUCAUUUGCAGGGUUUAGCCAAAAGGGUCAUCAUCUCUGCCCCCUCUGCUGAUGCCCC
B2: crRNA-A_GA (mature) (ssRNA)
RNA: B1 RNA 1 with G2A

Key:
[1] = target: T1, LbuC2c2-dHEPN1/dHEPN2; assay: EMSA; ssRNA A, no Mg listed in EMSA buffer, 37 C; which A variant was used not stated; conditions: tags: His6-MBP removed by TEV, label: 5'-32P, hairpin
Method: (§1) The quantified data were fit to standard binding isotherms. Error bars represent the standard deviation from three independent experiments. […] Three independent experiments were conducted as described in the Methods. The gel was cropped for clarity. c, Quantified binding data from (b) were fitted to standard binding […]. Error bars represent the standard deviation from three independent experiments. […] The quantified data were fit to standard binding isotherms. Error bars represent the standard deviation from three independent experiments. Measured dissociation constants from three independent experiments (mean±sd) were 4.65±0.6 nM (LbuC2c2-WT) and 2.52±0.5 nM (LbuC2c2-R1079A). It is of note that these binding affinities differ from panel a. This difference is accounted for in a slight difference in the 5′ sequence of the guide with panel a guides beginning with a 5′-GGCCA . . . and panel d 5′-GACCA. While the native sequence guide (5′-GACCA) binds tighter to LbuC2c2, no difference is seen in the RNA targeting efficiencies of these guide variants (Extended Data FIG. 6c).
Electrophoretic mobility-shift assays. […]

[2] = target: T2, LbuC2c2-R1079A; assay: filter; retains crRNA binding; Kd in truncated legend; conditions: tags: His6-MBP removed by TEV; label: 5'-32P; hairpin
Method: as §1
crRNA filter-binding assays. Filter binding assays was carried out in RNA processing buffer (20 mM HEPES pH 6.8, 50 mM KCl, 5 mM MgCl₂, […], 0.01% Igepal CA-630 and 5% glycerol). LbuC2c2 was incubated with radiolabeled crRNA (<0.1 nM) for 1 hr at 37° C. […]

Row | Binder | Kd [1] [nM] | binding result [2]
1 | B1 | 1.62 | 
2 | B2 |  | binds

From patent publication US20240182953, “METHODS AND COMPOSITIONS FOR DETECTING A TARGET RNA” (The Regents of the University of California, published 2024)
